Among the data in the Immune Epitope Database (IEDB) are Kd values, retold here.

For experiment [1], the target named is HLA-A*02:01. Nature of the experiment: IEDB peptide-MHC binding, purified MHC/competitive/fluorescence; filed as Kd, often an IC50 or EC50 that approximates it; ≥ and ≤ were set here for values at or beyond the usual limits of such assays. The settings on record: source organism: Yersinia pestis Nepal516.
In the next experiment the target is HLA-B*35:01. Described as above. The settings on record: source organism: Yersinia pestis Nepal516.
The target in a further experiment is HLA-C*08:02. Nature of the experiment: IEDB peptide-MHC binding, purified MHC/direct/fluorescence; filed as Kd, often an IC50 or EC50 that approximates it; ≥ and ≤ were set here for values at or beyond the usual limits of such assays.
The target of the next experiment is HLA-B*15:09. The experiment is described as above.
Another experiment addresses HLA-A*01:01. Described as above.
For the next experiment, the target named is HLA-B*08:01. Described as above.
The next experiment addresses HLA-B*44:02. The description is as above. To be noted: source organism: Influenza A virus (A/G.H/HK/793.1/02 (H5N1)).
In another experiment the target is HLA-B*58:01. The experiment is described as above.
The next experiment deals with HLA-A*11:01. The experiment is described as above.
The target in another experiment is HLA-A*03:01. The experiment is described as above.
A further experiment addresses HLA-B*07:02. The description is as above.
The target of a further experiment is HLA-A*24:02. Described as above. To be noted: source organism: Influenza A virus (A/G.H/HK/793.1/02 (H5N1)).
A further experiment addresses HLA-B*15:01. The experiment is described as above.
Experiment [2] has as its target HLA-A*02:01. The experiment is described as above.
The target of another experiment is HLA-B*40:01. The experiment is described as above.
Another experiment concerns the target HLA-B*27:05. The experiment is described as above.
The target in another experiment is HLA-B*18:01. Described as above.
A further experiment has as its target HLA-B*46:01. The description is as above.
Another experiment addresses HLA-A*26:02. Description: IEDB peptide-MHC binding, purified MHC/competitive/fluorescence; filed as Kd, often an IC50 or EC50 that approximates it; ≥ and ≤ were set here for values at or beyond the usual limits of such assays. The settings on record: source organism: Hantaan virus 76-118.
The target in a further experiment is HLA-A*26:01. Nature of the experiment: IEDB peptide-MHC binding, purified MHC/direct/fluorescence; filed as Kd, often an IC50 or EC50 that approximates it; ≥ and ≤ were set here for values at or beyond the usual limits of such assays.
In a further experiment the target is HLA-B*27:03. The experiment is described as above. The settings on record: source organism: Crocodilepox virus.
For a further experiment, the target named is HLA-A*02:12. Described as above. The settings on record: source organism: Crocodilepox virus.
The target in a further experiment is HLA-A*02:16. The experiment is described as above. The settings on record: source organism: Crocodilepox virus.
Another experiment concerns the target HLA-A*68:02. Described as above. The settings on record: source organism: Crocodilepox virus.
In a further experiment the target is HLA-A*24:03. The experiment is described as above. The settings on record: source organism: Crocodilepox virus.
In the next experiment the target is HLA-B*51:01. The experiment is described as above. The settings on record: source organism: Crocodilepox virus.
In the next experiment the target is HLA-A*02:11. Described as above. The settings on record: source organism: Crocodilepox virus.
The target in the next experiment is HLA-A*02:19. The description is as above. The settings on record: source organism: Crocodilepox virus.
Experiment [3] concerns the target HLA-A*02:03. The experiment is described as above. To be noted: source organism: Crocodilepox virus.
Another experiment addresses HLA-B*39:01. The experiment is described as above.
In another experiment the target is HLA-B*57:01. The experiment is described as above.
For experiment [4], the target named is HLA-A*02:03. Description: IEDB peptide-MHC binding, purified MHC/competitive/fluorescence; filed as Kd, often an IC50 or EC50 that approximates it; ≥ and ≤ were set here for values at or beyond the usual limits of such assays. To be noted: source organism: Influenza A virus (A/swine/Italy/1521/98(H1N2)).
The next experiment has as its target HLA-A*69:01. Description: IEDB peptide-MHC binding, purified MHC/direct/fluorescence; filed as Kd, often an IC50 or EC50 that approximates it; ≥ and ≤ were set here for values at or beyond the usual limits of such assays.
A further experiment addresses HLA-B*15:17. The description is as above. To be noted: source organism: Influenza A virus (A/swine/Korea/S190/2004(H9N2)).
The target in another experiment is HLA-B*38:01. The description is as above. To be noted: source organism: Influenza A virus H3N2.
A further experiment has as its target HLA-A*31:01. The description is as above. To be noted: source organism: Influenza A virus (A/swine/Korea/S190/2004(H9N2)).
The next experiment deals with HLA-B*48:01. The experiment is described as above. To be noted: source organism: Influenza A virus (A/swine/Korea/S190/2004(H9N2)).
The target of another experiment is HLA-A*80:01. Described as above. To be noted: source organism: Yellow fever virus.
Where [5] appears, read: source organism: Influenza A virus (A/G.H/HK/793.1/02 (H5N1)).
Setting [6] is: source organism: Crocodilepox virus.
[7] abbreviates: source organism: Influenza A virus H3N2.
Where [8] appears, read: source organism: Influenza A virus (A/swine/Korea/S190/2004(H9N2)).
Setting [9] is: source organism: Yellow fever virus.

Regarding FVADYLARF, the Kd was determined as 0.082 µM with HLA-A*02:01 [1], 0.0033 µM with HLA-B*35:01 and 2.77 µM with HLA-C*08:02 (source organism: Yersinia pestis Nepal516).

Consider RRKTNLYGF, for which the Kd in the experiment with HLA-B*15:09 (source organism: Influenza A virus (A/Taiwan/2/2006(H1N1))), with HLA-A*01:01 (setting [5]), with HLA-B*08:01 (setting [5]), with HLA-B*44:02, with HLA-B*58:01 (setting [5]) and in the experiment with HLA-A*11:01 (setting [5]) was no less than 20 µM throughout. The Kd with HLA-A*03:01 (setting [5]), with HLA-B*07:02 (setting [5]), in the experiment with HLA-A*24:02, with HLA-B*15:01 (setting [5]), with HLA-A*02:01 [2] (setting [5]) and in the experiment with HLA-B*40:01 (setting [5]) was no less than 20 µM throughout. Besides, the Kd with HLA-B*27:05 (source organism: Influenza A virus (A/Puerto Rico/8/34/Mount Sinai(H1N1))) is 0.021 µM; in the experiment with HLA-B*18:01 (setting [5]) it was no less than 20 µM; with HLA-B*46:01 (setting [5]), no less than 20 µM.

For ETYKELKAH, the results for the Kd in the experiment with HLA-A*26:02 and in the experiment with HLA-A*26:01 (source organism: Orthohantavirus hantanense) were 0.0118 µM and 0.25 µM, respectively.

In the case of VVARLGVPY, the Kd with HLA-B*27:03, with HLA-A*02:12, with HLA-A*03:01 (setting [6]), in the experiment with HLA-A*02:16, with HLA-A*26:01 (setting [6]) and with HLA-A*68:02 was no less than 20 µM throughout. In addition, the Kd in the experiment with HLA-A*24:03, in the experiment with HLA-B*51:01, in the experiment with HLA-A*02:01 [2] (setting [6]), with HLA-A*02:11, with HLA-A*02:19 and with HLA-A*02:03 [3] was no less than 20 µM in each case. Also, the Kd in the experiment with HLA-B*39:01 (setting [6]) and with HLA-B*57:01 (setting [6]) was no less than 20 µM each time.

As to STAPTGSWF, in the experiment with HLA-C*08:02 (source organism: human gammaherpesvirus 4), the Kd is no less than 20 µM.

With WIPKRNRSI, the Kd was no less than 20 µM with HLA-A*02:03 [4]; no less than 20 µM with HLA-B*15:09 (setting [7]); no less than 20 µM with HLA-A*01:01 (setting [8]); no less than 20 µM in the experiment with HLA-A*69:01 (setting [8]); no less than 20 µM with HLA-B*15:17; 0.018 µM with HLA-B*08:01 (setting [7]). Further, the Kd with HLA-B*58:01 (setting [8]) was no less than 20 µM; with HLA-A*11:01 (setting [8]) it was no less than 20 µM; in the experiment with HLA-A*03:01 (setting [8]), no less than 20 µM; in the experiment with HLA-B*38:01 it was no less than 20 µM; in the experiment with HLA-B*07:02 (setting [8]) it was 0.644 µM; in the experiment with HLA-B*15:01 (setting [8]) it was no less than 20 µM. The Kd in the experiment with HLA-A*02:01 [2] (setting [8]), in the experiment with HLA-A*31:01, in the experiment with HLA-B*40:01 (setting [8]), in the experiment with HLA-B*27:05 (setting [8]), with HLA-B*39:01 (setting [7]) and in the experiment with HLA-B*48:01 was no less than 20 µM in each case. In addition, the Kd in the experiment with HLA-B*18:01 (setting [8]), in the experiment with HLA-B*46:01 (setting [8]) and with HLA-B*57:01 (setting [8]) was no less than 20 µM throughout.

In the experiment with HLA-A*80:01, GVEGIGLQY had a Kd of 0.338 µM.

In the case of GTGDSRLTY, the Kd with HLA-A*69:01 (setting [9]) is no less than 20 µM; with HLA-A*80:01, 0.2 µM; with HLA-A*02:01 [2] (setting [9]) it was no less than 20 µM.
